In assay [1] the target is 全长KIT ITD (Ba/F3稳定细胞系表面) (human) (UniProt P10721). Briefly: cell-based or functional assay.
Assay [2] deals with 全长KIT WT (Ba/F3稳定细胞系表面) (human) (UniProt P10721). The assay is described as follows: cell-based or functional assay.
In the next assay the target is T1, KIT ITD D4-5蛋白 (human, UniProt P10721 309-519).
T1 chain: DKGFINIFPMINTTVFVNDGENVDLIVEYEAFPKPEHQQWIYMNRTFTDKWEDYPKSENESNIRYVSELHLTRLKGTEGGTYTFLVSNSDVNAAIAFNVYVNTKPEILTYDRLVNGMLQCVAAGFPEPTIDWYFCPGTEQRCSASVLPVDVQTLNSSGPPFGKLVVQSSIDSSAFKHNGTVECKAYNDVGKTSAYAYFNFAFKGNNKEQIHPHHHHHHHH
The assay is described as follows: SPR, Biacore T200, 3G2 amine-coupled on CM5, KIT ITD D4-5 as analyte (3.125-100 nM).

Another assay concerns the target T2, KIT WT D4-5蛋白 (human, UniProt P10721 309-519, limits assumed).
T2 construct: domain: 第4、5个Ig结构域 (D4-5); Expressed in HEK293 cells by BacMam; also called KIT WT的第4、5个结构域
Briefly: SPR, Biacore T200, 3G2 amine-coupled on CM5, KIT WT D4-5 as analyte (3.125-100 nM).

B1: 单克隆抗体3G2 (antibody, V domains shown)
VH: EVQLQESGPGLVKPSQSLSLTCTVAGYSITSDYAWNWIRQFPGNRLEWVGYISYSGSTSYNPSLKSRISITRDTSQNQFFLQLNSVTTEDTATYYCTRWRYRYTLAMDYWGQGTSVTVSS
VL: DIVLTQSPAITAASLGQKVTITCSASSSISYIHWYQQKSGTSPKPWIYEIYKLASGVPPRFSGSGSGTSYSLTISSMEAEDAAIYYCQQWNYPFTFGSGTKLEIKR
notes: also called 3G2抗体; not shown: hinge and Fc of the mouse hybridoma antibody
In assay [1], B1 registered an IC50 of cell survival (CCK8) of KIT ITD Ba/F3 cells of 1.29 nM, a percent of KIT ITD Ba/F3 cells in early apoptosis at 10 nM 3G2 of 41%, a percent of KIT ITD Ba/F3 cells in late apoptosis at 10 nM 3G2 of 14.5% and a percent of KIT ITD Ba/F3 cells in programmed apoptosis at 10 nM 3G2 (Annexin V-FITC/7-AAD) of 55.5%. Moreover, in assay [2], the percent apoptosis of KIT WT Ba/F3 cells with 3G2 turned out to be 10.9%. Further, binding with KIT ITD D4-5蛋白 was put at a Kd of 17.1 nM. For the same molecule, the Kd in the assay with KIT WT D4-5蛋白 came out at 154 nM.

These data come from patent CN108822212A (UNIV BEIJING, dated 2018).
